Experiment: label from the status in PepcDB records
With “TLDAPLQRRMEDLLMGWRARLPERTSAAILVVEAENMAVRAYVGSVDISDVKRFGHVDMVTALRSPGSTLKPFLYGMAMDAGLIHSESLMQDVPRRYGDYRPGNFSTGFGGPVAASSALSMSLNLPAVQLLEVYGPKRFAAELRNGGVPLTLPPLAEPNLALILGGAGSRLEDLVAGYSAFARGGRSADVRLQPQDRLRERRMMSPGAAWIIRRILSGQSRPDIDPRAELVQRPQLAWKTGTSYGFRDAWAIGVGPRFLVGVWIGRPDGTPVPGQFGLASAAPLMLQVHDVLVNRDSQRGI” the protein production was “failed”. For “TLDLPMQMAAERALADVPQQAAIVALRPSTGEVLAVAQNAPADALGPIALTGLYPPGSTFKTVTTSAALQAGAATPDTVLPCPGTENIEGRQIPNDDEFDLGAVPLHTAFARSCNTTMGRLAVGLPPDALQQAALQFGLGVDYVTPGLTTVTGNVPVADSPAARVESGIGQGQVTATPFGMAMVAASIANGSTPSPMIVQGQPGTADKTAPTVPANVTSDLRTMMRETVTGGTATALQDIPGLLGKTGTAESGNGPAHGWFVGIKDDLAFAVFIATGDSSAPAVQAAGRFLR”, the protein production was “failed”. In the case of “TLTVNGPPIISSTQTQHALHGEKGQIKCFIRSTPPPDRIAWSWKENVLESGTSGRYTVETISTEEGVISTLTISNIVRADFQTIYNCTAWNSFGSDTEIIRLKEQGSEM”, the protein production was “not failed”. In the case of “TNHKGEKINVAVKTCKKDCTLDNKEKFMSEAVIMKNLDHPHIVKLIGIIEEEPTWIIMELYPYGELGHYLERNKNSLKVLTLVLYSLQICKAMAYLESINCVHRDIAVRNILVASPECVKLGDFGLSRYIEDEDYYKASVTRLPIKWMSPESINFRRFTTASDVWMFAVCMWEILSFGKQPFFWLENKDVIGVLEKGDRLPKPDLCPPVLYTLMTRCWDYDPSDRPRFTELVCSLSDVYQMEKDIAMEQERNARYRTPKILEPTAFQE”, the protein production was “failed”. For “TPAVVERADADSQYEILVGGQRAGLTAYRDLGAQRVFFHTEIDEAFAGQGLASQLVQQALVDVRASGMRIVPVCPYVAKFLKRHDEFADITDPVTPEVLRWLEAQL”, the protein production was “failed”. In the case of “TPTEGLTIGDKAPTFTICGEKQLIDLKDLRGKYVLLSFWASYDALSRMQNATLNHAVAQADNVEMVSVSFDEYKSIFNETIKKDQISTSNCFVELAGVSSDLYQTYRLKRGFKNFLLDENGVIVAKDVTVSELSS”, the protein production was “failed”. With “TPVVFLGAGNLATNLAKALYRKGFRIMQVYSRTEESARTLANEVEAEYITDLKDVSNEARLYIISLKDAAFVELLPQITDGKQHALLVHTAGSIPMNIWEGHAERYGVFYPMQTFSKQREVDFREVPFFIEAKRPEDTELLKAVAGTLSDKVYEAD” the protein production was “failed”. For “TRGSAQMQPYFEELLLSLGPILKNITNSMVISGHTDSTPYAGSLFTNWELSSERALLARRVLERGGVKRDQVIQVTGMADQVPYITSDTAAAANRRIEALILTS”, the protein production was “failed”. In the case of “TRNTLDIRTVAHREADGSYRIKGEKFYSTGALFAHWVSIKALDDNGKTVMAFIERGTQGLRIVDDWSGFGQRTTASGTVLLDDVSVPAKQVVP”, the protein production was “failed”. For “TSIRQGASNVICAYRRDEENMPGSRREVKNAKEEGVKFMFNLQPLGIEVDAYGKVSGVKVVKTALGEPDDAGRRRPEPVEGSEHVLPADAVIMAFGFQPHQMDWLTPFNVELDQWGRIKAPNNQEFQYQTSNEKIFAGGDAVRGSDLVVTAIDEGRKAAEGILDYLDV”, the protein production was “failed”. In the case of “TSITPSSQDICRICHCEGDDESPLITPCHCTGSLHFVHQACLQQWIKSSDTRCCELCKYEFIMETKL”, the protein production was “not failed”. With “TSSISPAKMANGTAGTKVALRKTKQAAEKISADKISKEALLECADLLSSALTEPVPNSQLVDTGHQLLDYCSGYVDCIPQTRNKFAFREA” the protein production was “failed”. For “TSTDAAGGDSYRVGINQLVQHPALDAATTGFKEAFEEAGVDVTFDEQNANGEQGTALTISQQFASDNLDLVLAVATPAAQATAQNITDIPVLFTAVTDAVSAELVDSNEAPGGNVTGTSDIAPIEQQLELLQQLVPDAKSIGIVYASGEVNSQVQVDEVTKAAEPLGLSVNTQTVTTVNEIQQAVEALGDVDVIYVPTDNMVVSGISSLVQVAEQKQIPVIGAESGTVEGGALATLGIDYTELGRQTGEMALRILQDGEDPATMPVETATEFTYVINEDAAERQGVEIPQEILDKAERV”, the protein production was “failed”. With “TTAKPQQIQALMDEVTKQGNIVRELKAQKADKNEVAAEVAKLLDLKKQLAVAEGKPPEAPKGKKKK” the protein production was “not failed”. For “TTKKRVFHFGKGKSEGNKTMKELLGGKGANLAEMASIGLSVPPGFTVSTEACQQYQDAGCALPAGLWAEIVDGLQWVEEYMGATLGDPQRPLLLSVRSGAAVSMPGMMDTVLNLGLNDEVAAGLAAKSGERFAYDSFRRFLDMFGNVVMDIPRSLFEEKLEHMKESKGLKNDTDLTASDLKELVGQYKEVYLSAKGEPFPSDPKKQLELAVLAVFNSWESPRAKKYRSINQITGLRGTAVNVQCMVFGNMGNTSGTGVLFTRNPNTGEKKLYGEFLVNAQGEDVVAGIRTPEDLDAMKNLMPQAYDELVENCNILESHYKEMQDIEFTVQENRLWMLQCRTGKRTGKSAVKIAVDMVNEGLVEPRSAIKMVEPGHLDQLLHPQFENPSAYKDQVIATGLPASPGAAVGQVVFTAEDAEAWHSQGKAAILVRAETSPEDVGGMHAAVGILTERGGMTSHAAVVARGWGKCCVSGCSGIRVNDAEKLVTIGGHVLREGEWLSLNGSTGEVILGKQPLSPPALSGDLGTFMAWVDDVRKLKVLANADTPDDALTARNNGAQGIGLCRTEHMFFASDERIKAVRQMIMAPTLELRQQALDRLLPYQRSDFEGIFRAMDGLPVTIRLLDPPLHEFLPEGNIEDIVSELCAETGANQEDALARIEKLSEVNPMLGFRGCRLGISYPELTEMQARAIFEAAIAMTNQGVQVFPEIMVPLVGTPQELGHQVTLIRQVAEKVFANVGKTIGYKVGTMIEIPRAALVADEIAEQAEFFSFGTNDLTQMTFGYSRDDVGKFIPVYLAQGILQHDPFEVLDQRGVGELVKFATERGRKARPNLKVGICGEHGGEPSSVAFFAKAGLDYVSCSPFRVPIARLAAAQVLV”, the protein production was “not failed”. With “TVSQLRSRITRFALAGRGMRETVTWSFISEKQALAFGGGQAQLKLVNPISADMSVMRPSLLPGLLVAAQRNADRGFPDFALFEVSNIYEDDTPDKQHRVAGGIRRGTEQFGGAGRFWNGNARAVDVFDAKADALAVLEACGLESGKVQIEVGAPDWYHPGRSGVIKLGSKIILGFFGVFHPATLEKLDISGPLCGFEIFLDRIP” the protein production was “failed”. For “VACKPKEKPSSATSLTDDALMDTVQRRTFNYFWDAAEPNSGLARERYHMDGEYPAGGPEIVTSGGSGFGIMAILAGIDRGYVSREEGLRRMEKIVGFLEKADRFKGAYPHWWNGETGHVQPFGQKDNGGDLVETAFLMQGLLAVHQYYAEGSAEEKKLAGRIDKLWREVDWNWYRHGGQNVLYWHWSPEYGWEMNFPVHGYNECLIMYILAAASPTHGVPAAVYHEGWAQNGAIVSPHKVEGIELHLRYQGGEAGPLFWAQYSFLGLDPVGLKDEYCPSYFNEMRNLTLVNREYCIRNPKHYKGYGPDCWGLTASYSVDGYAAHGPLERDDRGVISPTAALSSIVYTPDQSLQVMHHLYEMGDKVFGPYGFYDAFSETADWYPKRYLAIDQGPIAVMIENYRTGLLWKLFMSHPDVQNGLKKLGFNVKK”, the protein production was “not failed”. With “VADTDGHYRVRAITEISSFNETLGATFSDKEFDTIGGLVINKFGRLPKNGESITIEGFNFTVTRADSRRLHLLKVERIEPGVVEDADSHDSV” the protein production was “not failed”. In the case of “VAKMRFIDIGANLLDEMYTGQYNDKPYHPPDLSAVLERAWAAGLEKLMITAGSLKEARAALELAKTDERLYCTVGCHPTRCKEFEDHPGGPEAYLQELLEVLKEGQALGKVVAVGECGLVATDYERLHFCDADTQKKYFEAQFRLAKESGLPMFLHLRAAADDFLDITGRHLGDFPRGGVVHSFDGTAEEAARVLAVPQLAIGINGCSLKTDDNLAVVGGLPLERIMLETDCPWCEIRPTHAGRKHVSAEALAGVTGAKDRKKFMPGCQVKSRNEPANIRQVLEVVAGVKGRTDLEAVADVIFGNTERMFFPTA”, the protein production was “not failed”. For “VAPLGLSVPSDVELPPTAKMHAIIERTASFVCRQGAQFEIMLKAKQARNSQFDFLRFDHYLNPYYKFIQKAMKEGRYTVLAENKSDEKKKSGVS”, the protein production was “not failed”. For “VATLYNDLKNKQTSVVEPKKPLPETWKNMHPCMVLNYMRPQCTFIVSGGTGTNQNNTFSMSVCVDNCEFNAEGPSKKAARYKLSALVCNKLFGTDYPQK”, the protein production was “failed”.

— a protein production outcome set (Wang et al. 2014)
